The source of these data is patent US20120064001A1 (AFFITECH RESEARCH, published 2012).

Experiment [1] concerns the target T1, human VEGF-A (human, UniProt P15692-4 27-191, limits assumed).
T1 construct: Sources differ between assays (Dr. Brekken; R&D Systems); also called VEGF-biotin (biotinylated form in the receptor ELISA)
In words: SPR (Biacore T100); IgG over 100 RU human VEGF-A on a CM5 chip; 1:1 fit; 25°C. As to the method: (§1) The background signal from a flow cell coated with BSA was subtracted from the binding curves. The binding affinity expressed as the KD was calculated by the 1:1 Fitting model using software belonging to the Biacore T100 machine.

Experiment [2] addresses T1, human VEGF-A. In words: SPR (Biacore T100); IgG over 100 RU human VEGF-A on a CM5 chip; 1:1 fit; 37°C. As to the method: as §1
Experiment [3] has as its target T1, human VEGF-A. In words: SPR (Biacore T100); IgG over 100 RU human VEGF-A on a CM5 chip. On the procedure:
as §1

The target of experiment [4] is T1, human VEGF-A. In words: SPR (Biacore 3000); IgG over immobilized VEGF-A; 1:1 binding model; initial study; initial study; Biacore 3000; IgG over immobilized VEGF-A.

T1 sequence (P15692 other isoform, or with tags, fused parts or gaps limits assumed): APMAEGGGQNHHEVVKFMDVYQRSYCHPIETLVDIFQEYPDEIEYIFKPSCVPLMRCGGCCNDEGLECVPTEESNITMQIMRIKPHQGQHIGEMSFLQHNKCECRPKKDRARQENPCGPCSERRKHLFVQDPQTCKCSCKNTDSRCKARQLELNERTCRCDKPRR

B1: r84/PGN311 full length fully human IgG (antibody, V domains shown)
VH: QVQLVQSGAEVKKPGASVKVSCKASGGTFSSYAISWVRQAPGQGLEWMGGFDPEDGETIYAQKFQGRVTMTEDTSTDTAYMELSSLRSEDTAVYYCATGRSMVRGVIIPFNGMDVWGQGTTVTVSS
VL: not shown
notes: Human IgG1/kappa (Lonza pCon IgG1a and kappa vectors, CHO K1SV cells); also called r84 IgG; r84/PGN311 IgG
On to B1, for which the Kd is 3.21 nM in experiment [1], 5.22 nM in experiment [2] and 6.7 nM in experiment [4]. Also, the “fold reduction of KD, 25°C versus 37°C” value in experiment [3] is less than 2 fold.
